From publication PMC4705661, “Tetramerization and interdomain flexibility of the replication initiation controller YabA enables simultaneous binding to multiple partners” (Nucleic Acids Research, 2015)

Key:
[1] = target: the molecule itself; assay: SEC-MALS; YabA1-58 and YabA70-119 loaded at 5 mg.ml^-1 (100 μl) on a Superdex 75 column; 50 mM Tris pH 8.0, 150 mM NaCl
[2] = target: the molecule itself; assay: crystal structure; form I crystals, space group P3(2)21, 2.7 Å; 20% PEG 3350, 100 mM Bis-Tris propane pH 6.5, 200 mM potassium thiocyanate
[3] = target: the molecule itself; assay: SEC-MALS; YabA loaded at 2.5 mg.ml^-1 (100 μl) on Superdex 200 HR 10/30; 50 mM Tris pH 8.0, 150 mM NaCl

B1: YabA^1–58 (domain or fragment, B. subtilis, UniProt P37542 1-58, looked up)
chain: MDKKELFDTVINLEEQIGSLYRQLGDLKQHIGEMIEENHHLQLENKHLRKRLDDTTQQ
notes: YabA, B. subtilis strain 168, residues 1-58; tag removed by HRV 3C protease; also called NTD fragment; N-terminal fragment YabA1-58; not shown: His-tag, N-terminal, cleaved
[1]
  stoichiometry N: 4

B2: YabA^1–62 (crystallized N-terminal domain fragment) (domain or fragment, B. subtilis, UniProt P37542 1-62, looked up)
chain: MDKKELFDTVINLEEQIGSLYRQLGDLKQHIGEMIEENHHLQLENKHLRKRLDDTTQQIEKF
notes: YabA, B. subtilis strain 168; form I crystals (2.7 Å) grew from the purified YabA/DnaN complex, form II crystals from YabA alone; two chains per asymmetric unit, tetramer by crystal symmetry; also called YabA NTD; YabA-NTD; source: E. coli BL21 (DE3), purified; fragment left by proteolysis during crystallization
[2]
  stoichiometry N: 4

B3: YabA (full length, purified recombinant) (natural protein)
chain: not shown
notes: expressed from pET151/D-TOPO; also called recombinant YabA; full length YabA; source: E. coli BL21 (DE3), purified (HisTrap, TEV cleavage, Superdex 200)
[3]
  stoichiometry N: 4
